Experimental data from paper PMC3101595 (The Journal of Cell Biology, 2010).
Blank lines part the entries; values can stand above or below the binder they belong to.

Assays:
cross-linking = target: the molecule itself; experiment: cross-linking
6His-Flag-DIAP1 = target: T1, 6His-Flag-DIAP1 (Drosophila, UniProt Q24306 1-438); experiment: co-IP
T1 sequence (looked up): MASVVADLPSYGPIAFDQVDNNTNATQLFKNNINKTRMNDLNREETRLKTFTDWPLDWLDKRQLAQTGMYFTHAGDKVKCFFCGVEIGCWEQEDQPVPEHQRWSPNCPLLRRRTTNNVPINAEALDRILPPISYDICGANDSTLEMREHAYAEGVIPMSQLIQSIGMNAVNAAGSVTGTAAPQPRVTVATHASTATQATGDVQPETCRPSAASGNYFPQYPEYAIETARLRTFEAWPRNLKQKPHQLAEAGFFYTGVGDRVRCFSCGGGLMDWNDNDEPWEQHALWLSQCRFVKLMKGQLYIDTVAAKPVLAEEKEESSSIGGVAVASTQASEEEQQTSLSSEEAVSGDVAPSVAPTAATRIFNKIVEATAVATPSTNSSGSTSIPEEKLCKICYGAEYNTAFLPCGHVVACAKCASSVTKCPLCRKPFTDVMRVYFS

binding result (6His-Flag-DIAP1): binds
B1: HidΔMTS-His6 (domain or fragment, Drosophila, UniProt Q24106 1-386, looked up)
chain: MAVPFYLPEGGADDVASSSSGASGNSSPHNHPLPSSASSSVSSSGVSSASASSASSSSSASSDGASSAASQSPNTTTSSATQTPMQSPLPTDQVLYALYEWVRMYQSQQSAPQIFQYPPPSPSCNFTGGDVFFPHGHPNPNSNPHPRTPRTSVSFSSGEEYNFFRQQQPQPHPSYPAPSTPQPMPPQSAPPMHCSHSYPQQSAHMMPHHSAPFGMGGTYYAGYTPPPTPNTASAGTSSSSAAFGWHGHPHSPFTSTSTPLSAPVAPKMRLQRSQSDAARRKRLTSTGEDEREYQSDHEATWDEFGDRYDNFTAGRERLQEFNGRIPPRKKKSSNSHSSSSNNPVCHTDSQPGGTSQAESGAIHGHISQQRQVERERQKAKAEKKKP
binding result (cross-linking): binds

B2: Rpr-His6 (natural protein, Drosophila, UniProt Q24475 1-65, looked up)
chain: MAVAFYIPDQATLLREAEQKEQQILRLRESQWRFLATVVLETLRQYTSCHPKTGRKSGKYRKPSQ
binding result (cross-linking): binds
